Experimental data from publication PMC7092707 (Biotechniques, 2019).

Biological target: adenosine A2A receptor (human (endogenous in postmortem ventral …, UniProt P29274 1-412))
Experiment: proximity ligation

Sequence of adenosine A2A receptor (human (P29274 whole entry): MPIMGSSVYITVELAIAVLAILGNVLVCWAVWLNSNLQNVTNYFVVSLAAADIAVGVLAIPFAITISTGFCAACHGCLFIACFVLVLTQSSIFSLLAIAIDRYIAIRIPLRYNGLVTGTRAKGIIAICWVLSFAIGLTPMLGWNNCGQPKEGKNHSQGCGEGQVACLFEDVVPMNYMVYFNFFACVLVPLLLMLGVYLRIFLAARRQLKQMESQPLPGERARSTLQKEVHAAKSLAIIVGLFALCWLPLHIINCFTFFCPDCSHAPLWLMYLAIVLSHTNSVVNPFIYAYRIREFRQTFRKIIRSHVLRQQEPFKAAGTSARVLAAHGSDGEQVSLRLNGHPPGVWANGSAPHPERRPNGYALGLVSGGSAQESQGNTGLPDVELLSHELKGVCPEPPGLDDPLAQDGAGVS

- fraction of D2R-A2AR complex relative to total A2AR (PLA puncta): 12.3 ± 1.8%
- fraction of D2R-A2AR complex relative to total D2R (PLA puncta): 13.4 ± 5.3%
B1: dopamine receptor type 2 (receptor, UniProt P14416 1-443, looked up)
chain: MDPLNLSWYDDDLERQNWSRPFNGSDGKADRPHYNYYATLLTLLIAVIVFGNVLVCMAVSREKALQTTTNYLIVSLAVADLLVATLVMPWVVYLEVVGEWKFSRIHCDIFVTLDVMMCTASILNLCAISIDRYTAVAMPMLYNTRYSSKRRVTVMISIVWVLSFTISCPLLFGLNNADQNECIIANPAFVVYSSIVSFYVPFIVTLLVYIKIYIVLRRRRKRVNTKRSSRAFRAHLRAPLKGNCTHPEDMKLCTVIMKSNGSFPVNRRRVEAARRAQELEMEMLSSTSPPERTRYSPIPPSHHQLTLPDPSHHGLHSTPDSPAKPEKNGHAKDHPKIAKIFEIQTMPNGKTRTSLKTMSRRKLSQQKEKKATQMLAIVLGVFIICWLPFFITHILNIHCDCNIPPVLYSAFTWLGYVNSAVNPIIYTTFNIEFRKAFLKILHC
